Experimental data: US20130310310A1

Experiments:
GLP-1 receptor [1] = target: GLP-1 receptor
GLP-1 receptor [2] = target: GLP-1 receptor; remark: listed apart in the source

| Substance | EC50, GLP-1 receptor agonistic activity (CRE-luciferase reporter in HEK293 cells) (GLP-1 receptor [1]) [nM] | EC50 (nM), GLP-1 receptor agonistic activity (CRE-luciferase reporter in HEK293 cells) (GLP-1 receptor [2]) [nM] |
| --- | --- | --- |
| Exendin-4 (peptide) | 1.93 |  |
| [Cys^21(mPEG5000-MAL)] Exendin-4 (peptide) |  | 22.5 |
